Results on one molecule are retold here after article PMC4005678, “Structural basis for Klf4 recognition of methylated DNA”.

This data set concerns the target Klf4 ZnF1-3 DNA-binding domain (mouse, UniProt Q60793 396-483). As to the kind of experiment: X-ray crystallography (1.85 A); 3 Zn2+; FP: 20 mM Tris-HCl pH 7.5, 150 mM NaCl, 5% (v/v) glycerol, 0.5 mM TCEP, ~22 C; probe 10 nM (WT) or 1 nM (E446A). Conditions: protein: recombinant; tags: GST tag removed; N-terminal GPLGS left; blunt.

Chain of Klf4 ZnF1-3 DNA-binding domain (Q60793 396-483): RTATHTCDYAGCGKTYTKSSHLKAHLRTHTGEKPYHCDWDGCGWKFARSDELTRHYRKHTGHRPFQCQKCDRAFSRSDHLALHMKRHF

B1: crystal 10-mer M/M (dsDNA)
DNA 1: GAGGCGTGGC
DNA 2: GCCACGCCTC
modifications: 5mC at position 5 of strand 1 and position 5 of strand 2
Take B1: the binding result is given as “binds”.
